Source: patent US20150337051A1 (MORPHOTEK, published 2015)

Tests used:
[1] = biological target: T1, recombinant CHO TEM-1 Fc fusion protein (UniProt Q9HCU0); experiment: ECL sandwich, competition: biotin-9G5 capture, sulfo-TAG-15F8 detection; MORAb-004 spike 0.78125 µg/mL, TEM-1-Fc QC 50 ng/mL; recovery at 0 µg/mL MORAb-004: 104
T1 sequence (looked up): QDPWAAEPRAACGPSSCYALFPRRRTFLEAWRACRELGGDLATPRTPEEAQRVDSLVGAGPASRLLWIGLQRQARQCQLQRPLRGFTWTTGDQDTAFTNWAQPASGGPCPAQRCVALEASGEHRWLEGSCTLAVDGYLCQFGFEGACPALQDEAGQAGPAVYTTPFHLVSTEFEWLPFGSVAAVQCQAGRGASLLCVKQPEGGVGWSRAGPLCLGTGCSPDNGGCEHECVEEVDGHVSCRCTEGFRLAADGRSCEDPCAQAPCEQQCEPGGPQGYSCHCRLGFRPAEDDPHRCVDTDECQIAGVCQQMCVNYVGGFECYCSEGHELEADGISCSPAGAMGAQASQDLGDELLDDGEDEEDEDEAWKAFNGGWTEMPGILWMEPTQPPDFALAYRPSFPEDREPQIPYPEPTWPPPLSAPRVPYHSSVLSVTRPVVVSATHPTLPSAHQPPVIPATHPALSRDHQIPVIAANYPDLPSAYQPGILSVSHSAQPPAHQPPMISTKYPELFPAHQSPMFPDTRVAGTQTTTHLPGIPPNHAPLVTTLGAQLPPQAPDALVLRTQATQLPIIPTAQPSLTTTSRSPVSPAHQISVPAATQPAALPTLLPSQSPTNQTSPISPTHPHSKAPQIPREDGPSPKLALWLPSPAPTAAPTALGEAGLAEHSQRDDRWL

[2] = biological target: T1, recombinant CHO TEM-1 Fc fusion protein; experiment: ECL sandwich, competition: biotin-9G5 capture, sulfo-TAG-15F8 detection; MORAb-004 spike 50 µg/mL, TEM-1-Fc QC 50 ng/mL; recovery at 0 µg/mL MORAb-004: 104
[3] = biological target: T1, recombinant CHO TEM-1 Fc fusion protein; experiment: ECL sandwich, competition: biotin-9G5 capture, sulfo-TAG-15F8 detection; MORAb-004 spike 25 µg/mL, TEM-1-Fc QC 50 ng/mL; recovery at 0 µg/mL MORAb-004: 104
[4] = biological target: T1, recombinant CHO TEM-1 Fc fusion protein; experiment: ECL sandwich, competition: biotin-9G5 capture, sulfo-TAG-15F8 detection; MORAb-004 spike 12.5 µg/mL, TEM-1-Fc QC 10 ng/mL; recovery at 0 µg/mL MORAb-004: 105
[5] = biological target: T1, recombinant CHO TEM-1 Fc fusion protein; experiment: ECL sandwich, competition: biotin-9G5 capture, sulfo-TAG-15F8 detection; MORAb-004 spike 25 µg/mL, TEM-1-Fc QC 0.4 ng/mL; recovery at 0 µg/mL MORAb-004: 109
[6] = biological target: T1, recombinant CHO TEM-1 Fc fusion protein; experiment: ECL sandwich, competition: biotin-9G5 capture, sulfo-TAG-15F8 detection; MORAb-004 spike 6.25 µg/mL, TEM-1-Fc QC 2 ng/mL; recovery at 0 µg/mL MORAb-004: 106
[7] = biological target: T1, recombinant CHO TEM-1 Fc fusion protein; experiment: ECL sandwich, competition: biotin-9G5 capture, sulfo-TAG-15F8 detection; MORAb-004 spike 0.78125 µg/mL, TEM-1-Fc QC 0.08 ng/mL; recovery at 0 µg/mL MORAb-004: 114
[8] = biological target: T1, recombinant CHO TEM-1 Fc fusion protein; experiment: ECL sandwich, competition: biotin-9G5 capture, sulfo-TAG-15F8 detection; MORAb-004 spike 3.125 µg/mL, TEM-1-Fc QC 50 ng/mL; recovery at 0 µg/mL MORAb-004: 104
[9] = biological target: T1, recombinant CHO TEM-1 Fc fusion protein; experiment: ECL sandwich, competition: biotin-9G5 capture, sulfo-TAG-15F8 detection; MORAb-004 spike 12.5 µg/mL, TEM-1-Fc QC 50 ng/mL; recovery at 0 µg/mL MORAb-004: 104

% Recovery of TEM-1 QCs spiked with MORAb-004 [1]: 99.3%
% Recovery of TEM-1 QCs spiked with MORAb-004 [2]: 93.1%
% Recovery of TEM-1 QCs spiked with MORAb-004 [3]: 92.8%
% Recovery of TEM-1 QCs spiked with MORAb-004 [4]: 91.2%
% Recovery of TEM-1 QCs spiked with MORAb-004 [5]: 96.5%
% Recovery of TEM-1 QCs spiked with MORAb-004 [6]: 94.2%
% Recovery of TEM-1 QCs spiked with MORAb-004 [7]: 107%
% Recovery of TEM-1 QCs spiked with MORAb-004 [8]: 94.5%
% Recovery of TEM-1 QCs spiked with MORAb-004 [9]: 92.1%
B1: MORAb-004 (antibody, INN chains, looked up, V domains shown)
VH: QVQLQESGPGLVRPSQTLSLTCTASGYTFTDYVIHWVKQPPGRGLEWIGYINPYDDDTTYNQKFKGRVTMLVDTSSNTAYLRLSSVTAEDTAVYYCARRGNSYDGYFDYSMDYWGSGTPVTVSS
VL: DIQMTQSPSSLSASVGDRVTITCRASQNVGTAVAWLQQTPGKAPKLLIYSASNRYTGVPSRFSGSGSGTDYTFTISSLQPEDIATYYCQQYTNYPMYTFGQGTKVQIK
